In patent publication US20210214414A1 (Pfizer, published 2021):

What was measured:
Human SLIT2-N [1] = biological target: T1, Human SLIT2-N (human, UniProt O94813 31-1121, limits assumed); experiment: summary of the Examples (FIGS. 11-13) against ROBO2-Fc 2.2
T1 construct: domain: SLIT2-N (N terminal fragment); Soluble analyte in SPR, d2-labelled in HTRF, overexpressed on HEK293 cells in flow cytometry; also called human SLIT2-N (N terminal fragment)
T1 sequence (looked up): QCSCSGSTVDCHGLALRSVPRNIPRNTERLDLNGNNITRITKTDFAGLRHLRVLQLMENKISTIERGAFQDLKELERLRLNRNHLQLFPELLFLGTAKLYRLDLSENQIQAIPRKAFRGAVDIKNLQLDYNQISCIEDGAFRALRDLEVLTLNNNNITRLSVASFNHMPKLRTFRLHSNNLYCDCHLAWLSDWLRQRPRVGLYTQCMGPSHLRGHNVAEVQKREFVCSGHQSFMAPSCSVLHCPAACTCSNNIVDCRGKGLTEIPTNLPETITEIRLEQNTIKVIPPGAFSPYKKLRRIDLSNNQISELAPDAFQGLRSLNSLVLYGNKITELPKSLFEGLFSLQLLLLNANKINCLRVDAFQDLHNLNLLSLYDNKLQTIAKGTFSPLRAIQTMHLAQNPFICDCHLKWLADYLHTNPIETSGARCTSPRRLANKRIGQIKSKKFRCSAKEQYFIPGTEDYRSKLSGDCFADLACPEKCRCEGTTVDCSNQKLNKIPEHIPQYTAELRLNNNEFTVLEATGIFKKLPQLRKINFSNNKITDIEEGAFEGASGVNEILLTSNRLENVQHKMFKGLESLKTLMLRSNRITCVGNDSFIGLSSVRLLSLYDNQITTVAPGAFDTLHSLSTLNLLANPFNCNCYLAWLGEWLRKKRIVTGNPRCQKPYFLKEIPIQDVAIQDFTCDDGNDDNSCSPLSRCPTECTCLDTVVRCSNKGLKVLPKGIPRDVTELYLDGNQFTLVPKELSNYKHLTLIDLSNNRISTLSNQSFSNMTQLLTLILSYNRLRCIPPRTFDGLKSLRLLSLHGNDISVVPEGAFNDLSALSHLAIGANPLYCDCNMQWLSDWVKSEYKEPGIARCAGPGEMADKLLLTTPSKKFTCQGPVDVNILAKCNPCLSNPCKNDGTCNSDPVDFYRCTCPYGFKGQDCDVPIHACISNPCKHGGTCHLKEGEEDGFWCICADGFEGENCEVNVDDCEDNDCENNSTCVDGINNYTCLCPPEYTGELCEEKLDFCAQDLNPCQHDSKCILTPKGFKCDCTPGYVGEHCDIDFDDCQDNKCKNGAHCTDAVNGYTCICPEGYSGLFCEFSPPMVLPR

Human SLIT2-N [2] = biological target: T1, Human SLIT2-N; experiment: flow cytometry, AF647-labelled ROBO2-Fc S17T/R73Y on HEK293 cells overexpressing human SLIT2-N (FIG. 11)
Experimental: After incubation, […] FACS buffer was added per well to wash the cells. After washing, cells were resuspended in buffer for data acquisition on a Fortessa Flow Cytometer.

Human SLIT2-N [3] = biological target: T1, Human SLIT2-N; experiment: HTRF competition: d2-labelled human SLIT2-N binding to ROBO2 on HEK293 cells (competitor: cell surface ROBO2) (FIG. 12)
Experimental: After incubation, fluorescence at 665 nm and 620 nm was measured on an Envision multilabel plate reader. The HTRF Ratio was calculated as follows: fluorescence at 665 nm/fluorescence at 620 nm×10,000.

B1: ROBO2-Fc S17T/R73Y (Fc fusion)
chain: SRLRQEDFPPRIVEHPTDVIVSKGEPTTLNCKAEGRPTPTIEWYKDGERVETDKDDPRSHRMLLPSGSLFFLYIVHGRRSKPDEGSYVCVARNYLGEAVSRNASLEVALLRDDFRQNPTDVVVAAGEPAILECQPPRGHPEPTIYWKKDKVRIDDKEERISIRGGKLMISNTRKSDAGMYTCVGTNMVGERDSDPAELTVFERGGSGGSEPKSSDKTHTCPPCPAPEAAGAPSVFLFPPKPKDTLMISRTPEVTCVVVDVSHEDPEVKFNWYVDGVEVHNAKTKPREEQYNSTYRVVSVLTVLHQDWLNGKEYKCKVSNKALPAPIEKTISKAKGQPREPQVYTLPPSREEMTKNQVSLTCLVKGFYPSDIAVEWESNGQPENNYKTTPPVLDSDGSFFLYSKLTVDKSRWQQGNVFSCSVMHEALHNHYTQKSLSLSPGK
notes: Labelled with Alexa Fluor 647 in the flow cytometry assay; also called ROBO2-Fc 517T/R73Y; ROBO2-Fc S17T/R73Y-AF647
Human SLIT2-N [1]
  fold increase of binding affinity to SLIT2 against SEQ ID NO: 1: ~10 fold
Human SLIT2-N [2]
  EC50: 2.5 nM
Human SLIT2-N [3]
  IC50: 1.4 nM
